B1: EHEE_rd2_0196 (parent)
chain: TETRTFDSEEEAKKAQKEAEKQGRTVTITRRDDRWEVRFD

Variants of: B1
Assay: folding stability dG (cDNA display proteolysis); higher = more stable
Conditions: PBS, room temperature

Row | Variant | folding stability dG [kcal/mol]
1 | THTRTFDSEEEAKKAQKEAEKQGRTVTITRRDDRWEVRFD [E2H] | 3.05
2 | TVTRTFDSEEEAKKAQKEAEKQGRTVTITRRDDRWEVRFD [E2V] | 3.15
3 | TKTRTFDSEEEAKKAQKEAEKQGRTVTITRRDDRWEVRFD [E2K] | 2.86
4 | TSTRTFDSEEEAKKAQKEAEKQGRTVTITRRDDRWEVRFD [E2S] | 2.95
5 | TPTRTFDSEEEAKKAQKEAEKQGRTVTITRRDDRWEVRFD [E2P] | 2.48
6 | TFTRTFDSEEEAKKAQKEAEKQGRTVTITRRDDRWEVRFD [E2F] | 3.13
7 | TGTRTFDSEEEAKKAQKEAEKQGRTVTITRRDDRWEVRFD [E2G] | 2.79
8 | TRTRTFDSEEEAKKAQKEAEKQGRTVTITRRDDRWEVRFD [E2R] | 2.89
9 | TDTRTFDSEEEAKKAQKEAEKQGRTVTITRRDDRWEVRFD [E2D] | 2.71
10 | TYTRTFDSEEEAKKAQKEAEKQGRTVTITRRDDRWEVRFD [E2Y] | 3.19
11 | TTTRTFDSEEEAKKAQKEAEKQGRTVTITRRDDRWEVRFD [E2T] | 3.11
12 | TLTRTFDSEEEAKKAQKEAEKQGRTVTITRRDDRWEVRFD [E2L] | 2.98
13 | TATRTFDSEEEAKKAQKEAEKQGRTVTITRRDDRWEVRFD [E2A] | 2.84
14 | TNTRTFDSEEEAKKAQKEAEKQGRTVTITRRDDRWEVRFD [E2N] | 2.94
15 | TWTRTFDSEEEAKKAQKEAEKQGRTVTITRRDDRWEVRFD [E2W] | 3.24
16 | TMTRTFDSEEEAKKAQKEAEKQGRTVTITRRDDRWEVRFD [E2M] | 2.95
17 | TITRTFDSEEEAKKAQKEAEKQGRTVTITRRDDRWEVRFD [E2I] | 3.23
18 | TQTRTFDSEEEAKKAQKEAEKQGRTVTITRRDDRWEVRFD [E2Q] | 3.03
19 | TETRTFFSEEEAKKAQKEAEKQGRTVTITRRDDRWEVRFD [D7F] | 3.22
20 | TETRTFMSEEEAKKAQKEAEKQGRTVTITRRDDRWEVRFD [D7M] | 2.82
21 | TETRTFASEEEAKKAQKEAEKQGRTVTITRRDDRWEVRFD [D7A] | 2.92

Row | Variant | folding stability dG [kcal/mol]
22 | TETRTFESEEEAKKAQKEAEKQGRTVTITRRDDRWEVRFD [D7E] | 2.78
23 | TETRTFHSEEEAKKAQKEAEKQGRTVTITRRDDRWEVRFD [D7H] | 2.61
24 | TETRTFRSEEEAKKAQKEAEKQGRTVTITRRDDRWEVRFD [D7R] | 2.46
25 | TETRTFLSEEEAKKAQKEAEKQGRTVTITRRDDRWEVRFD [D7L] | 2.87
26 | TETRTFPSEEEAKKAQKEAEKQGRTVTITRRDDRWEVRFD [D7P] | 2.58
27 | TETRTFISEEEAKKAQKEAEKQGRTVTITRRDDRWEVRFD [D7I] | 2.46
28 | TETRTFGSEEEAKKAQKEAEKQGRTVTITRRDDRWEVRFD [D7G] | 2.74
29 | TETRTFKSEEEAKKAQKEAEKQGRTVTITRRDDRWEVRFD [D7K] | 2.52
30 | TETRTFSSEEEAKKAQKEAEKQGRTVTITRRDDRWEVRFD [D7S] | 2.84
31 | TETRTFQSEEEAKKAQKEAEKQGRTVTITRRDDRWEVRFD [D7Q] | 2.54
32 | TETRTFNSEEEAKKAQKEAEKQGRTVTITRRDDRWEVRFD [D7N] | 2.75
33 | TETRAFDSEEEAKKAQKEAEKQGRTVTITRRDDRWEVRFD [T5A] | 2.43
34 | TETRSFDSEEEAKKAQKEAEKQGRTVTITRRDDRWEVRFD [T5S] | 2.81
35 | TETRDFDSEEEAKKAQKEAEKQGRTVTITRRDDRWEVRFD [T5D] | 2.04
36 | TETRWFDSEEEAKKAQKEAEKQGRTVTITRRDDRWEVRFD [T5W] | 4.03
37 | TETRVFDSEEEAKKAQKEAEKQGRTVTITRRDDRWEVRFD [T5V] | 3.37
38 | TETRNFDSEEEAKKAQKEAEKQGRTVTITRRDDRWEVRFD [T5N] | 2.3
39 | TETRGFDSEEEAKKAQKEAEKQGRTVTITRRDDRWEVRFD [T5G] | 1.73
40 | TETRMFDSEEEAKKAQKEAEKQGRTVTITRRDDRWEVRFD [T5M] | 3.42
41 | TETRCFDSEEEAKKAQKEAEKQGRTVTITRRDDRWEVRFD [T5C] | 2.5
42 | TETRPFDSEEEAKKAQKEAEKQGRTVTITRRDDRWEVRFD [T5P] | 1.24

Row | Variant | folding stability dG [kcal/mol]
43 | TETRYFDSEEEAKKAQKEAEKQGRTVTITRRDDRWEVRFD [T5Y] | 3.96
44 | TETRLFDSEEEAKKAQKEAEKQGRTVTITRRDDRWEVRFD [T5L] | 3.46
45 | TETRRFDSEEEAKKAQKEAEKQGRTVTITRRDDRWEVRFD [T5R] | 2.35
46 | TETRIFDSEEEAKKAQKEAEKQGRTVTITRRDDRWEVRFD [T5I] | 3.42
47 | TETREFDSEEEAKKAQKEAEKQGRTVTITRRDDRWEVRFD [T5E] | 2.57
48 | TETRKFDSEEEAKKAQKEAEKQGRTVTITRRDDRWEVRFD [T5K] | 2.09
49 | TETRQFDSEEEAKKAQKEAEKQGRTVTITRRDDRWEVRFD [T5Q] | 2.63
50 | TETRFFDSEEEAKKAQKEAEKQGRTVTITRRDDRWEVRFD [T5F] | 3.75
51 | TETRHFDSEEEAKKAQKEAEKQGRTVTITRRDDRWEVRFD [T5H] | 2.71
52 | FETRTFDSEEEAKKAQKEAEKQGRTVTITRRDDRWEVRFD [T1F] | 3.38
53 | AETRTFDSEEEAKKAQKEAEKQGRTVTITRRDDRWEVRFD [T1A] | 3.08
54 | WETRTFDSEEEAKKAQKEAEKQGRTVTITRRDDRWEVRFD [T1W] | 3.67
55 | YETRTFDSEEEAKKAQKEAEKQGRTVTITRRDDRWEVRFD [T1Y] | 3.48
56 | IETRTFDSEEEAKKAQKEAEKQGRTVTITRRDDRWEVRFD [T1I] | 3.08
57 | GETRTFDSEEEAKKAQKEAEKQGRTVTITRRDDRWEVRFD [T1G] | 2.96
58 | DETRTFDSEEEAKKAQKEAEKQGRTVTITRRDDRWEVRFD [T1D] | 2.95
59 | LETRTFDSEEEAKKAQKEAEKQGRTVTITRRDDRWEVRFD [T1L] | 3.04
60 | VETRTFDSEEEAKKAQKEAEKQGRTVTITRRDDRWEVRFD [T1V] | 3.21
61 | CETRTFDSEEEAKKAQKEAEKQGRTVTITRRDDRWEVRFD [T1C] | 2.81
62 | METRTFDSEEEAKKAQKEAEKQGRTVTITRRDDRWEVRFD [T1M] | 3.12
